In the data set the test system is MS2 coat protein. Nature of the data set: apparent KD of MS2 coat protein; designed switch direction (-1 OFF switch, 1 ON switch): -1; higher = weaker reporter binding. Put shortly: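 Three titration conditions were used: no input, 200 uM small-molecule ligand, and an oligonucleotide input. In each, SNAP-549-labelled MS2 coat protein was raised from 0.7 or 1.5 nM, doubling, to 3 µM over designed RNA switches transcribed on Illumina chips by stalled E. coli RNA polymerase. Curve fits of normalised cluster fluorescence gave values whose per-design median over clusters is the apparent KD.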

Where [1] appears, read: Eterna round: R95, input ligand: FMN 200 uM.
Setting [2] is: Eterna round: R95, input ligand: microRNA oligo, concentration not stated.
Setting [3] is: Eterna round: R95, input ligand: none.
Where [4] appears, read: input ligand: microRNA oligo, concentration not stated.

For “GAAAAGGUAGGAUAUACGAAAAAAAAGGGUAGAAAAAAAUCACAUGAGGAUCACCCAUGUAGAAGGACCAAAAG [salish99_ex2_r3_072] (puzzle: Exclusion 2)”, the “apparent KD of MS2 coat protein” value is, setting by setting: under setting [1], 62.3 nM; under setting [2], 25 nM; under setting [3], 28.3 nM.

“UAAGAGUGAGGAUAUACGUCGCUGGUCGGGAUGGACGCAUGACAUGAGGAUCACCCAUGUAGAAGGCACAAAAC [Enxela Mod 10 - Jieux - Exclusion 2] (Eterna round: R97, puzzle: Exclusion 2)”: the “apparent KD of MS2 coat protein” value reads like this: (input ligand: FMN 200 uM) 87.6 nM; (input ligand: none) 25.4 nM.

“GGAUCACAUGUGAGGAUAUGCUGGUCCUUGGAUCAGCAGAAGGCACAUGAGGAUCACCCAUGUGAUCAAGAUCC [Eli bmx4 4.78] (Eterna round: R97, puzzle: Brourd's mod of Exclusion 4)”: the “apparent KD of MS2 coat protein” value is, setting by setting: (input ligand: FMN 200 uM) 22.2 nM; (input ligand: none) 37.1 nM.

Take “AAUAGCAAGCAAGAUCCUAACAUGAGGAUCACCCAUGUGCUCGUCUUGUAAAGUACUAUCACGAAAGUGAUAGUACA [Sensor 3, v1 - 49] (puzzle: Sensor v3, turn-off variant 1)”: the “apparent KD of MS2 coat protein” value by setting is: under setting [1], 29.7 nM; under setting [2], 211 nM; under setting [3], 31.9 nM.

Regarding “ACAAGCGUUAAGGAUAUACUGCCCUCAUUCUCGGUAGAAGGUAACACUUGAGGAUCACCCAAGUGAAAACCUGA [Erxeesis] (Eterna round: R97, puzzle: Exclusion 6)”, the “apparent KD of MS2 coat protein” value was determined as 10.6 nM (input ligand: FMN 200 uM) and 9.67 nM (input ligand: none).

In the case of “UUGUUGUAUGUAGGAUAUGCAUAUUAUUAUUGUGCAGAAGGACAUGAGGAUCACCCAUGUAUAUUAUUAUUAUAUAUUAUAUAU [Title] (Eterna round: R96, puzzle: Exclusion NG 1)”, the “apparent KD of MS2 coat protein” value under setting [4] turned out to be 27.2 nM.

Regarding “AAUAACAGGCCGAUCCUAAACAUGAGGAUCACCCAUGUGCUCGUCUUGUAAAGUACUAUCACGAAAGUGAUAGUACA [Sensor v3, turn-off variant 1 (MOD of Eli's v1-59 v.2 )] (puzzle: Sensor v3, turn-off variant 1)”, the “apparent KD of MS2 coat protein” value runs as follows: under setting [1], 39.9 nM; under setting [2], 419 nM; under setting [3], 31.4 nM.

Regarding “GAUGGAGAGCAGGAUAUCUUGGGUAAGCAUCAUAGAGAAGGGCUCACAUGAGGAUCACCCAUGUGGUCCUAGAA [Ateedza] (puzzle: Exclusion 6)”, the “apparent KD of MS2 coat protein” value is, setting by setting: under setting [1], 30.7 nM; under setting [2], 16.2 nM; under setting [3], 14.9 nM.

Take “CUUGUUUAUGUGAGGAUAUACUGUUAGUAAUGUUUGUAGAAGGUACAUGAGGAUCACCCAUGUUUAUUUAUAUU [JR_BME4_Sub043] (puzzle: Brourd's mod of Exclusion 4)”: the “apparent KD of MS2 coat protein” value under setting [2] was found to be 18.1 nM.

As to “AAUAGCUGAGGAUAUACAUGAGGAUCACCCAUGUAUUAGUAGGCUGGGAAUAAAUCGUGUAGAAGGCAGGAUGA [Ceerge] (puzzle: Exclusion 3)”, under setting [2], the “apparent KD of MS2 coat protein” value worked out at 16.7 nM.

Take “AGCAUGUAAGGAUAUGUAACGCGGCUUUCAUUCGCCGUCCCACAGAAGGUACAUGAGGAUCACCCAUGUGCUCC [Solaisorin] (puzzle: Exclusion 4)”: the “apparent KD of MS2 coat protein” value under setting [2] came to 33.3 nM.

Regarding “CUGGUCCGAGGAUAUAUGAUGUGAUACAUGAGGAUCACCCAUGUUAUAUUAUGGAUGUAAAUAGAAGGCGGACUAG [Mat - Exclusion 5 - JL mod - D71] (puzzle: Exclusion 5)”, the “apparent KD of MS2 coat protein” value is 71.2 nM under setting [1], 72.2 nM under setting [2] and 73.9 nM under setting [3].

Regarding “GCAGCAUAGUUUACUAACUGUUACAUGAGGAUCACCCAUGUCUAGGAUAUGGUCUGGAUUACAGGCCAGAAGGAGAAAAGCUGC [Eli exng3 - 036] (Eterna round: R96, puzzle: Exclusion NG 3)”, the “apparent KD of MS2 coat protein” value runs as follows: (input ligand: FMN 200 uM) 15.3 nM; under setting [4], 13 nM; (input ligand: none) 16.8 nM.

Consider “UAGACCGAUGUUAGGAUAUCUGGUCGAGAAAGAAAAGAGAAGGAACAUGAGGAUCACCCAUGUACCCGGGUAAC [Laisbebi] (puzzle: Brourd's mod of Exclusion 4)”, for which the “apparent KD of MS2 coat protein” value under setting [2] came out at 16.7 nM.

As for “ACAUGAGGAUCACCCAUGUGAAACCAAUGGCUGACUUUGAGCUAGGAUAUUCGUGCAUAUCAAACGAAGAAGGAGCAUUACUGG [Deportation 97 - Jieux - Exclusion NG 3] (Eterna round: R96, puzzle: Exclusion NG 3)”, the “apparent KD of MS2 coat protein” value was 36.9 nM (input ligand: FMN 200 uM), 31.5 nM under setting [4] and 34.8 nM (input ligand: none).

For “AGAUGUUAUAAGGAUAUGCAGGCCAUCGCAUCAGCAGAAGGUGUAACAUGAGGAUCACCCAUGUAAACGAACUG [Eternabot (L1) Solution 44] (Eterna round: R97, puzzle: Exclusion 6)”, the “apparent KD of MS2 coat protein” value reads like this: (input ligand: FMN 200 uM) 28.9 nM; (input ligand: none) 22.8 nM.

Turning to “AAGUACCGUCACGAUAGUGAUGGUACAACAAGCAUGUAAACAUGAGGAUCACCCAUGUCCUCAAUUGCUCGUCUUAU [Sensor 3 - 68] (puzzle: Sensor v3, turn-off variant 2)”, the “apparent KD of MS2 coat protein” value amounted to 692 nM under setting [1], 570 nM under setting [2] and 842 nM under setting [3].

“AGCUAACGAACAGGAUAUCCAAAGCGAUAGCAGGGAGAAGGGUUCAGAACUUGAGGAUCACCCAAGUGGGCUGAGCUCGGGAAA [Mutated MS2 EX1.3] (Eterna round: R96, puzzle: Exclusion NG 1)”: the “apparent KD of MS2 coat protein” value is, setting by setting: (input ligand: FMN 200 uM) 12 nM; under setting [4], 12.6 nM; (input ligand: none) 20.9 nM.

With “CCAUAUAACUGAGGAUAUACUCACCACUAACAUGUAGAAGGCAGACAUGAGGAUCACCCAUGUGAUUUCUCAAUAUUAUACAUC [Prohibition 75 - Jieux - Exclusion NG 1] (Eterna round: R96, puzzle: Exclusion NG 1)”, under setting [4], the “apparent KD of MS2 coat protein” value was determined as 500 nM.

“AAAAAACAAGCUUUUUGAAACAUGAGGAUCACCCAUGUCUUAUAAAAUAAAAAUAAAAAUAAAAAUAAAAUAAAAAA [Sensor V2: 80 Random] (Eterna round: R96, puzzle: Sensor v2, turn-off variant)”: the “apparent KD of MS2 coat protein” value (input ligand: FMN 200 uM) amounted to 36.2 nM, the “apparent KD of MS2 coat protein” value under setting [4] came to 67.9 nM and the “apparent KD of MS2 coat protein” value (input ligand: none) came to 37.4 nM.

As to “AACCCUGUAGGAUAUCAGGGACUACACAUGAGGAUCACCCAUGUGACCUCAACCUAGUGUUGAGAAGGACAGGUAU [Eternabot (Original) Solution 22] (Eterna round: R97, puzzle: Exclusion 5)”, the “apparent KD of MS2 coat protein” value turned out to be 50.9 nM (input ligand: FMN 200 uM) and 49.1 nM (input ligand: none).

On to “GAGGCAUGCUGAGGUCCACACAUGAGGAUCACCCAUGUAAUGACAAGCUUUUUCCUCGUCUUAUCGCUAUCGCGUUC [Dilaenla] (puzzle: Sensor v3, turn-off variant 1)”, for which the “apparent KD of MS2 coat protein” value turned out to be 15.5 nM under setting [1], 28.4 nM under setting [2] and 15 nM under setting [3].

On to “UGUUGUCGCGCAGGAUAUGAGGAUCACCCAUAUGGAGGAUAUGAAAAGAAGGUUCUGAGGAUCACCCAGAAGGGCGGGACAACU [pwkr exNG2 2xF5 2xFMN.20] (Eterna round: R96, puzzle: Exclusion NG 2)”, for which the “apparent KD of MS2 coat protein” value amounted to 261 nM (input ligand: FMN 200 uM), 43 nM under setting [4] and 60.6 nM (input ligand: none).

In the case of “UAAGAAGGUGUUAGGAUAUGCAGAGCAGGGCUAAGGCAGAAGGGACAUGAGGAUCACCCAUGUGCUACGGGUGC [Enrainbera] (puzzle: Brourd's mod of Exclusion 4)”, the “apparent KD of MS2 coat protein” value was 51.2 nM under setting [1], 37.2 nM under setting [2] and 35.9 nM under setting [3].

As to “AGUACUAACACGAGAGUGUUAGUACUAUAAGCUUGUGUUACAUGAGGAUCACCCAUGUCCUCAUAGGCUCGUCUUAG [Mat - Sensor v3 - Turn-off var 2 - D83] (puzzle: Sensor v3, turn-off variant 2)”, the “apparent KD of MS2 coat protein” value under setting [1] is 80.4 nM, the “apparent KD of MS2 coat protein” value under setting [2] stood at 42.7 nM and the “apparent KD of MS2 coat protein” value under setting [3] is 87.3 nM.

For the sequence “AACUGGACAGGAUAUGUUCUUGAGCACUUGAGGAUCACCCAAGUCGUCGAGAACUCAGGCACAGAAGGGUUAAUGA [Bera] (Eterna round: R97, puzzle: Exclusion 5)”, the “apparent KD of MS2 coat protein” value runs as follows: (input ligand: FMN 200 uM) 35.1 nM; (input ligand: none) 17.7 nM.

For the sequence “UAUUAAACAAGCGGAUCCCACAUGAGGAUCACCCAUGUGCUCGUCUUAUAAGGUACUGUGACGAAAGUCACGGUACC [Sensor 3, v1 - 91 v13] (Eterna round: R97, puzzle: Sensor, turn-off variant 1)”, the “apparent KD of MS2 coat protein” value reads like this: (input ligand: FMN 200 uM) 25 nM; (input ligand: none) 28.9 nM.

For “AGUUGGCGAGGAUAUACAUGAGGAUCACCCAUGUGAGAGAAAAAAGUGAGGAAGAAAAGUAGAAGGCGCUGACG [salish99_ex3_r3_040] (puzzle: Exclusion 3)”, the “apparent KD of MS2 coat protein” value is 61.2 nM under setting [1], 38.5 nM under setting [2] and 40.1 nM under setting [3].

Consider “UUUUUUUUGUUUUUUGUUUACAUGAGGAUCACCCAUGUGACGAGUUUAUGGGUGAACAAGCUUUUUGCUCGUCUUAU [Sensor v3 - Turn-off variant 1 - 5] (puzzle: Sensor v3, turn-off variant 1)”, for which the “apparent KD of MS2 coat protein” value was found to be 52.4 nM under setting [1], 17.8 nM under setting [2] and 140 nM under setting [3].

On to “UCAUGUCCAGAGGAUAUGUAGCGGGAGACCGCAACAGAAGGCUGGACAUGAGGAUCACCCAUGUGCGCCUUCAA [jl-ex3-4.28 ViennaUCT mod] (Eterna round: R97, puzzle: Exclusion 6)”, for which the “apparent KD of MS2 coat protein” value was 43 nM (input ligand: FMN 200 uM) and 352 nM (input ligand: none).

The values above are taken from the supplement of paper PMC9170038.
